Literature values in patent publication US20210106646A1, “Combination Of A Novel Topical Gel And Oral Supplements For Healing Diabetic Foot And Other Wounds” (Smart Products & Services Inc. (dba Aloevive), priority 2019, published 2021).

Conditions: topical use, per product website

Question: Which “rare but serious side effects” value does the source give for “Regranex Gel: Regranex (becaplermin) Gel is a recombinant human platelet-derived growth factor used to treat lower extremity diabetic ulcers” here?
Answer: The value was “allergic reactions such as rash, itching, swelling (especially of the face/tongue/throat), dizziness, and trouble breathing”.
